In patent publication US20240124553A1:

Tests used:
Experiment in all cases: flow cytometry, transfected 293T cells
[1] = biological target: CHIKV E2-E1 envelope glycoproteins (strain S27), E2 mutant A103S (chikungunya virus strain S27) (UniProt Q8JUX5)
[2] = biological target: CHIKV E2-E1 envelope glycoproteins (strain S27), E2 mutant A33S (chikungunya virus strain S27) (UniProt Q8JUX5)
[3] = biological target: CHIKV E2-E1 envelope glycoproteins (strain S27), E2 mutant A76S (chikungunya virus strain S27) (UniProt Q8JUX5)
[4] = biological target: CHIKV E2-E1 envelope glycoproteins (strain S27), E2 mutant A78S (chikungunya virus strain S27) (UniProt Q8JUX5)
[5] = biological target: CHIKV E2-E1 envelope glycoproteins (strain S27), E2 mutant A81S (chikungunya virus strain S27) (UniProt Q8JUX5)
[6] = biological target: CHIKV E2-E1 envelope glycoproteins (strain S27), E2 mutant D43A (chikungunya virus strain S27) (UniProt Q8JUX5)
[7] = biological target: CHIKV E2-E1 envelope glycoproteins (strain S27), E2 mutant D60A (chikungunya virus strain S27) (UniProt Q8JUX5)
[8] = biological target: CHIKV E2-E1 envelope glycoproteins (strain S27), E2 mutant D71A (chikungunya virus strain S27) (UniProt Q8JUX5)
[9] = biological target: CHIKV E2-E1 envelope glycoproteins (strain S27), E2 mutant D77A (chikungunya virus strain S27) (UniProt Q8JUX5)
[10] = biological target: CHIKV E2-E1 envelope glycoproteins (strain S27), E2 mutant F115A (chikungunya virus strain S27) (UniProt Q8JUX5)
[11] = biological target: CHIKV E2-E1 envelope glycoproteins (strain S27), E2 mutant F129A (chikungunya virus strain S27) (UniProt Q8JUX5)
[12] = biological target: CHIKV E2-E1 envelope glycoproteins (strain S27), E2 mutant G44A (chikungunya virus strain S27) (UniProt Q8JUX5)
[13] = biological target: CHIKV E2-E1 envelope glycoproteins (strain S27), E2 mutant G57A (chikungunya virus strain S27) (UniProt Q8JUX5)
[14] = biological target: CHIKV E2-E1 envelope glycoproteins (strain S27), E2 mutant H131A (chikungunya virus strain S27) (UniProt Q8JUX5)
[15] = biological target: CHIKV E2-E1 envelope glycoproteins (strain S27), E2 mutant H73A (chikungunya virus strain S27) (UniProt Q8JUX5)
[16] = biological target: CHIKV E2-E1 envelope glycoproteins (strain S27), E2 mutant I121A (chikungunya virus strain S27) (UniProt Q8JUX5)
[17] = biological target: CHIKV E2-E1 envelope glycoproteins (strain S27), E2 mutant I56A (chikungunya virus strain S27) (UniProt Q8JUX5)
[18] = biological target: CHIKV E2-E1 envelope glycoproteins (strain S27), E2 mutant K66A (chikungunya virus strain S27) (UniProt Q8JUX5)
[19] = biological target: CHIKV E2-E1 envelope glycoproteins (strain S27), E2 mutant L52A (chikungunya virus strain S27) (UniProt Q8JUX5)
[20] = biological target: CHIKV E2-E1 envelope glycoproteins (strain S27), E2 mutant N39A (chikungunya virus strain S27) (UniProt Q8JUX5)
[21] = biological target: CHIKV E2-E1 envelope glycoproteins (strain S27), E2 mutant P128A (chikungunya virus strain S27) (UniProt Q8JUX5)
[22] = biological target: CHIKV E2-E1 envelope glycoproteins (strain S27), E2 mutant P90A (chikungunya virus strain S27) (UniProt Q8JUX5)
[23] = biological target: CHIKV E2-E1 envelope glycoproteins (strain S27), E2 mutant Q53A (chikungunya virus strain S27) (UniProt Q8JUX5)
[24] = biological target: CHIKV E2-E1 envelope glycoproteins (strain S27), E2 mutant R104A (chikungunya virus strain S27) (UniProt Q8JUX5)
[25] = biological target: CHIKV E2-E1 envelope glycoproteins (strain S27), E2 mutant R68A (chikungunya virus strain S27) (UniProt Q8JUX5)
[26] = biological target: CHIKV E2-E1 envelope glycoproteins (strain S27), E2 mutant S118A (chikungunya virus strain S27) (UniProt Q8JUX5)
[27] = biological target: CHIKV E2-E1 envelope glycoproteins (strain S27), E2 mutant S122A (chikungunya virus strain S27) (UniProt Q8JUX5)
[28] = biological target: CHIKV E2-E1 envelope glycoproteins (strain S27), E2 mutant S124A (chikungunya virus strain S27) (UniProt Q8JUX5)
[29] = biological target: CHIKV E2-E1 envelope glycoproteins (strain S27), E2 mutant S51A (chikungunya virus strain S27) (UniProt Q8JUX5)
[30] = biological target: CHIKV E2-E1 envelope glycoproteins (strain S27), E2 mutant T126A (chikungunya virus strain S27) (UniProt Q8JUX5)
[31] = biological target: CHIKV E2-E1 envelope glycoproteins (strain S27), E2 mutant T96A (chikungunya virus strain S27) (UniProt Q8JUX5)
[32] = biological target: CHIKV E2-E1 envelope glycoproteins (strain S27), E2 mutant V113A (chikungunya virus strain S27) (UniProt Q8JUX5)
[33] = biological target: CHIKV E2-E1 envelope glycoproteins (strain S27), E2 mutant Y69A (chikungunya virus strain S27) (UniProt Q8JUX5)

CHIKV mAb IM-CKV065 (antibody) gave a Binding Reactivity (% WT) [1] of 46.8 % WT, a Binding Reactivity (% WT) [2] of 123 % WT and a Binding Reactivity (% WT) [3] of 125 % WT. It also gave a Binding Reactivity (% WT) [4] of 107 % WT, a Binding Reactivity (% WT) [5] of 96.6 % WT and a Binding Reactivity (% WT) [6] of 3.7 % WT. It also gave a Binding Reactivity (% WT) [7] of 114 % WT, a Binding Reactivity (% WT) [8] of 102 % WT and a Binding Reactivity (% WT) [9] of 61.2 % WT. The Binding Reactivity (% WT) [10] was -0.2 % WT, the Binding Reactivity (% WT) [11] was -1.1 % WT and the Binding Reactivity (% WT) [12] was 50.4 % WT. The Binding Reactivity (% WT) [13] was 108 % WT, the Binding Reactivity (% WT) [14] was 3.2 % WT and the Binding Reactivity (% WT) [15] was -0.9 % WT. The Binding Reactivity (% WT) [16] was 111 % WT, the Binding Reactivity (% WT) [17] was 102 % WT and the Binding Reactivity (% WT) [18] was 99.6 % WT. The Binding Reactivity (% WT) [19] was 142 % WT, the Binding Reactivity (% WT) [20] was 120 % WT and the Binding Reactivity (% WT) [21] was 80.3 % WT. For the same substance, the Binding Reactivity (% WT) [22] was 108 % WT, the Binding Reactivity (% WT) [23] was 43.3 % WT and the Binding Reactivity (% WT) [24] was 66.9 % WT. The Binding Reactivity (% WT) [25] was 88.1 % WT, the Binding Reactivity (% WT) [26] was 86 % WT and the Binding Reactivity (% WT) [27] was 91.1 % WT. For the same substance, the Binding Reactivity (% WT) [28] was 97.3 % WT, the Binding Reactivity (% WT) [29] was 85.6 % WT and the Binding Reactivity (% WT) [30] was 67.2 % WT. For the same substance, the Binding Reactivity (% WT) [31] was 113 % WT, the Binding Reactivity (% WT) [32] was 70.4 % WT and the Binding Reactivity (% WT) [33] was 46.3 % WT.
